According to patent US20220195063A1 (BYONDIS B V, published 2022):

B1: 29AM4-5huIgG1LALA (antibody, V domains shown)
VH: EVQLVESGGGLVQPGGSLRLSCAASGFNISYYFIHWVRQAPGKGLEWVASVYSSFGYTYYADSVKGRFTISADTSKNTAYLQMNSLRAEDTAVYYCARFTFPGLFDGFFGAYLGSLDYWGQGTLVTVSS
VL: DIQMTQSPSSLSASVGDRVTITCRASQSVSSAVAWYQQKPGKAPKLLIYSASSLYSGVPSRFSGSRSGTDFTLTISSLQPEDFATYYCQQAVNWVGALVTFGQGTKVEIKR
notes: HAVT20 leader left out
B2: anti-SIRPα antibody 7 (antibody, human IgG1, kappa, L234A L235A, V domains shown)
VH: RSVEESGGRLVTPGTPLTLTCTVSGFSLSSHGISWVRQAPGKGLEYIGTIGTGVITYFASWAKGRFTGSKTSTTVDLKITSPTTEDTATYFCARGSAWNDPFDPWGPGTLVTVSS
VL: ALVMTQTPASVSAAVGGTVTTKCQASQSVYGNNDLAWYQHKPGQPPKLLIYLASTLATGVPSRFSGSGSGTQFTLTITGVQSDDAATYYCLGGGDDEADNVFGGGTEVVVKR
notes: Chimeric: rabbit variable regions on human IgG1 LALA / kappa; also called chimeric antibody 7
B3: anti-SIRPα antibody 15 humanized (antibody, human IgG1, kappa, L234A L235A, V domains shown)
VH: RSVEESGGRLVTPGTPLTLTCTVSGFSLSSHGISWVRQAPGKGLEYIGTIGTGVITYFASWAKGRFTGSKTSTTVDLKITSPTTEDTATYFCARGSAWNDPFDPWGPGTLVTVSS
VL: ELVMTQSPSSLSASVGDRVTITCQASQSVYGNNDLAWYQQKPGEAPKLLIYLASTLATGVPSRFSGSGSGTDFTLTISGLQSEDFATYYCLGGGDDEADNVFGQGTKVEIKR
B4: anti-SIRPα antibody 16 humanized (antibody, human IgG1, kappa, L234A L235A, V domains shown)
VH: RSVEESGGRLVTPGTPLTLTCTVSGFSLSSHGISWVRQAPGKGLEYIGTIGTGVITYFASWAKGRFTGSKTSTTVDLKITSPTTEDTATYFCARGSAWNDPFDPWGPGTLVTVSS
VL: DIEMTQSPSSVSASVGDRVTLTCQASQSVYGNNDLAWYQQKPGQAPKLLIYLASTLATGVPSRFSGSGSGTDFTLTISSLQPEDFATYYCLGGGDDEADNVFGGGTKVEIKR
B5: anti-SIRPα antibody 9 (antibody, human IgG1, kappa, L234A L235A, V domains shown)
VH: QSMEESGGRLVTPGTPLTLTCTASGFSLSNYGVSWVRQAPGKGLEWIGIIYGGSDITAYASWAKGRFTISKTSTTVDLTITSPTTEDTATYFCAKSYTNGMDYYNIWGPGTLVTVSL
VL: AFDLTQTPSSVEAPVGGTVIIKCQASQSISSYLAWYQQKPGQPPKLLIYSASTLASGVSSRFKGSGSETQFPLTISDLESADAATYYCQSYYGSRSNVFGGGTEVVVKR
notes: Rabbit variable regions on human IgG1 LALA / kappa
B6: anti-SIRPα antibody 1 (antibody, human IgG1, kappa, L234A L235A, V domains shown)
VH: QSVEESGGRLVTPGTPLTLTCTVSGIDLSSYAMSWVRQAPGKGLEWIGIISSGGITYYASWAKGRFTISKTSTTVDLKIPSPTTEDTATYFCARSLWAASNYYMALWGPGTLVTVSS
VL: AIKMTQTPASVSAAVGGTVSINCQASEDIESYLAWYQQKPGQPPKLLIYRASTLASGVSSRFKGSGSGTQFTLTISDLESADAATYYCLGDYYSSSGDTGAFGGGTEVVVKR
notes: as for B5
B7: anti-SIRPα antibody 6 (antibody, human IgG1, kappa, L234A L235A, V domains shown)
VH: QSVEESGGRLVTPGTPLTLTCTVSGIDLSSYTMTWVRQAPGKGLEWIGIIYAGGSTAYASWAKGRFTISKTSTTVDLKITSPTTEDTATYFCARSSSDGYDYFNIWGPGTLVTVSL
VL: GVVMTQTPSSVSAAVGGTVTINCQASQSIGSWLAWYQQKPGQPPKLLIYQASKLASGVPSRFSGRGSGTHFTLTISDVQSDDAATYYCQQTVTAASNVDNAFGGGTEVVVKR
notes: as for B5

How the values were obtained:
[1] = molecular target: human SIRPαBIT (huSIRPαBIT), protein antigen (human) (UniProt P78324); test: SPR, biotinylated antigen captured, 25 C
human SIRPγ (huSIRPγ) [2] = molecular target: T1, human SIRPγ (huSIRPγ) (human, UniProt Q9P1W8 29-360, limits assumed, biotinylated in the SPR assay); test: SPR, biotinylated antigen captured, 25 C
T1 construct: Coated on the plate in ELISA, biotinylated and captured in SPR
Protocol: (§1) Surface Plasmon Resonance (SPR) assay: Affinity analysis was performed by single cycle kinetics analysis on a Surface Plasmon Resonance apparatus (Biacore T200 system, GE Life Sciences) at 25° C. Biotinylated SIRP antigens were captured on the surface of a chip suitable for biotinylated molecules (Sensor Chip CAP, GE Life Sciences) by injecting 5 μg/ml of the SIRP antigen in running buffer (10 mM HEPES buffer at pH 7.4 with 150 mM NaCl, 3 mM EDTA and 0.005% v/v polyoxyethylene (20) sorbitan monolaurate (Surfactant P20) for 60 sec at 10 μL/min after injection of a streptavidin conjugate (20× diluted biotin CAPture reagent, GE Life Sciences) for 60 sec at 10 μl/min. Baseline stabilization was set at 1 min after which five increasing concentrations of an anti-SIRP antibody in running buffer (10 mM HEPES buffer at pH 7.4 with 150 mM NaCl, 3 mM EDTA and 0.005% v/v polyoxyethylene (20) sorbitan monolaurate) were injected. For each step an association time of 150 sec was used, followed by a dissociation time of 1200 sec at the highest concentration only, all at a flow rate of 30 μL/min. Regeneration was performed with 6 M guanidine-HCl, 0.25 M NaOH solution (60 sec with flow rate of 30 μL/min). Double blank subtraction was performed on the observed sensorgrams using a non anti-SIRP (blank) immobilized reference flow channel and running buffer injection. Sensorgrams were fitted with a 1:1 Langmuir model for all tested anti-SIRP antibodies. The kinetic parameters (kₐ, kd and KD) were calculated using the Biacore T200 evaluation software (v3.1).

[3] = molecular target: T2, human SIRPα1 (huSIRPα1), protein antigen (human, UniProt P78324 31-370, limits assumed, biotinylated in the SPR assay); test: SPR, biotinylated antigen captured, 25 C
T2 construct: Coated on the plate in ELISA, biotinylated and captured in SPR; also called v2
Protocol: as §1

[4] = molecular target: human SIRPαBIT expressed on cells (human) (UniProt P78324); test: flow cytometry, U937 cells
[5] = molecular target: human SIRPβ1v1 (huSIRPβ1v1) (human) (UniProt O00241); test: ELISA, antigen coated
[6] = molecular target: human SIRPαBIT (huSIRPαBIT), protein antigen (human) (UniProt P78324); test: ELISA, antigen coated
human SIRPγ (huSIRPγ) [7] = molecular target: T1, human SIRPγ (huSIRPγ); test: ELISA, antigen coated
Protocol: (§2) ELISA assay: Solutions of huSIRPα₁, huSIRPαBIT, huSIRPβ₁ᵥ₁, huSIRPβ₁ᵥ₂, huSIRPγ and cySIRPα in phosphate buffered saline (PBS) were each added to a multiple well black polystyrene plate for ELISA and allowed to adhere for 1 h at RT. Unbound protein was removed with three washing steps using standard washing buffer. Subsequently, blocking buffer was added to the wells. After 1 h incubation at RT, the wells were washed three times with standard washing buffer. The antibodies in buffer at various concentrations were added to the wells and incubated at RT for 1 h. Unbound antibodies were removed with three washing steps using standard washing buffer. Goat anti human IgG (Fab′)₂:horse radish peroxidase (HRP) in buffer was added to the wells and incubated at RT for 1 h. 3,3′,5,5′-Tetramethylbenzidine (TMB) was added and after sufficient colour development HCl was added. Absorbance was read at 450 nm/620 nm.

[8] = molecular target: T2, human SIRPα1 (huSIRPα1), protein antigen; test: ELISA, antigen coated
Protocol: as §2

[9] = molecular target: T3, human SIRPβ1v2 (huSIRPβ1v2) (human, UniProt Q5TFQ8 30-371); test: ELISA, antigen coated
T3 construct: Coated on the plate in ELISA; Only the Ensembl protein number is printed; also called huSIRPß1v2
Protocol: as §2

[10] = molecular target: T4, cynomolgus SIRPα (cySIRPα), protein antigen (cynomolgus monkey, UniProt A0A2K5VYQ9 31-369); test: ELISA, antigen coated
T4 construct: Coated on the plate in ELISA
T4 sequence: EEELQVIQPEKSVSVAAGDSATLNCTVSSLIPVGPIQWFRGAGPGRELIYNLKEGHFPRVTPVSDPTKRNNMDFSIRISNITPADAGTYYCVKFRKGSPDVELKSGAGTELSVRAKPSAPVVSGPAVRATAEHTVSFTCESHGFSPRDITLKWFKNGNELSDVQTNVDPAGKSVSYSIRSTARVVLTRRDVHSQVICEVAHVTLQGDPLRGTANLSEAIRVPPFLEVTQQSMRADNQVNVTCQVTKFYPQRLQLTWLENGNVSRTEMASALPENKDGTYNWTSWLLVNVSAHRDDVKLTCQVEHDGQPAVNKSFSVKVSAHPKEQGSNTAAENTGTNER
Protocol: as §2

[11] = molecular target: T5, cynomolgus SIRPα expressed on cells (cynomolgus monkey, UniProt A0A2K5VYQ9 31-507); test: flow cytometry, ExpiCHO-S cells
T5 construct: whole, on cells; also called ExpiCHO-S (cySIRPα)
T5 sequence: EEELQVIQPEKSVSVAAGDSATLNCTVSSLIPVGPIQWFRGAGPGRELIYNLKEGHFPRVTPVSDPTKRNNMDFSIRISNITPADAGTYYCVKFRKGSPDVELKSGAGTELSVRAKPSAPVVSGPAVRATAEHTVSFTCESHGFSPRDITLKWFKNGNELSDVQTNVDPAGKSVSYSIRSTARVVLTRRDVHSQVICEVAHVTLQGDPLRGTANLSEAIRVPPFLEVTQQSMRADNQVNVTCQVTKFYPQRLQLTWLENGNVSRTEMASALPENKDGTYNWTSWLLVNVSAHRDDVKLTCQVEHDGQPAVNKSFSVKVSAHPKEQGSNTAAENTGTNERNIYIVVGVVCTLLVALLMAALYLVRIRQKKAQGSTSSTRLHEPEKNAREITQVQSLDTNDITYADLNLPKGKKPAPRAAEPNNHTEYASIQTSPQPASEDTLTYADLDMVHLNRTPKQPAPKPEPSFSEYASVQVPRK
Excerpt: Flow Cytometry: U937 cells endogenously expressing human SIRPαBIT antigen and cells derived from a non-engineered subclone that has been screened and isolated from CHO-S Chinese hamster ovary cells (ExpiCHO-S) cells expressing human SIRPα₁, SIRPαBIT or cySIRPα antigen (100,000 cells/well in a 96-well plate) were washed three times with ice-cold FACS buffer (1×PBS (LONZA) containing 0.2% v/w BSA (Sigma-Aldrich, St. Louis, Mo.) and 0.02% v/w NaN₃ (Sigma-Aldrich), followed by the addition of a concentration range of each primary mAb (50 μL/well) diluted in ice-cold FACS buffer. After an incubation time of 30 min at 4° C., the cells were washed three times with ice-cold FACS buffer and 50 μL/well secondary mAb (AffiniPure F(ab′)₂ fragment Goat-anti-human IgG-APC, 1:6,000 dilution, Jackson Immuno Research) was added. After 30 min at 4° C., cells were washed twice and resuspended in 150 μL FACS buffer. Fluorescence intensities were determined by flow cytometry (BD FACSVerse, Franklin Lakes, N.J.) and indicated as the median fluorescence intensity (MFI-Median) for U937 cells and ExpiCHO-S cells. Curves were fitted by nonlinear regression using the sigmoidal dose-response equation with variable slope (four parameters) in GraphPad Prism (version 7.02 for Windows, GraphPad, San Diego, Calif.). EC₅₀ values were calculated as the concentration in μg/mL that gives a response half way between bottom and top of the curve, when using a 4-parameter logistic fit.

[12] = molecular target: human SIRPαBIT expressed on cells (human) (UniProt P78324); test: flow cytometry, ExpiCHO-S cells

Sequence of human SIRPαBIT (huSIRPαBIT), protein antigen (human) (P78324 31-370): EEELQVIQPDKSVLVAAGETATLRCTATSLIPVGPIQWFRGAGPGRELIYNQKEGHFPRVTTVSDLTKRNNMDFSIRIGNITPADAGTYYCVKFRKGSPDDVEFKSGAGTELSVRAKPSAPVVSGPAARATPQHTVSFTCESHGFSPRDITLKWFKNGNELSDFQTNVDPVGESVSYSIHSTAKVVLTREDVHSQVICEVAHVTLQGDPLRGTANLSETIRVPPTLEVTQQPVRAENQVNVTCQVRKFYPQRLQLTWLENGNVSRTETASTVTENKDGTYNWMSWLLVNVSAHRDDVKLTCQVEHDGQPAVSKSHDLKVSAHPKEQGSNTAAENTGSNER
T3 sequence (Q5TFQ8 30-371 limits assumed): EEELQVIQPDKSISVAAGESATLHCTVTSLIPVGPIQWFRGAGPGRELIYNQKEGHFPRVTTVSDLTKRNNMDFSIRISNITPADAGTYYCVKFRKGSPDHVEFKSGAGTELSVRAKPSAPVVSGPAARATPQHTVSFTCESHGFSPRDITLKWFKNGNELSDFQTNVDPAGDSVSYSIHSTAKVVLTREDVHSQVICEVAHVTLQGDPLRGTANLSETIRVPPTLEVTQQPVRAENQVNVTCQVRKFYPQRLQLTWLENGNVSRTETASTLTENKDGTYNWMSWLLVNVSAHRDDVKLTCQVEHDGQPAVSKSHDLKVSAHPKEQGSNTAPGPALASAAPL
T2 sequence (P78324 other isoform, or with tags, fused parts or gaps limits assumed): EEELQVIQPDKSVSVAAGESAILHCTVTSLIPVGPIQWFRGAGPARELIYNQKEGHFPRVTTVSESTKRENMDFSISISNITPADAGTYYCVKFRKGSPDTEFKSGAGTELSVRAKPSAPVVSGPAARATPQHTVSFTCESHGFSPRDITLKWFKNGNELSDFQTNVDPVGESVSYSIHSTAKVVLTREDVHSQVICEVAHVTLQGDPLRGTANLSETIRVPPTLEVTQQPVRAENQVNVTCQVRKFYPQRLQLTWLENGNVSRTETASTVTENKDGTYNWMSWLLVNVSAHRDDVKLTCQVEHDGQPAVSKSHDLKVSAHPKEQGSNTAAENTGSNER
T1 sequence (Q9P1W8 29-360 limits assumed): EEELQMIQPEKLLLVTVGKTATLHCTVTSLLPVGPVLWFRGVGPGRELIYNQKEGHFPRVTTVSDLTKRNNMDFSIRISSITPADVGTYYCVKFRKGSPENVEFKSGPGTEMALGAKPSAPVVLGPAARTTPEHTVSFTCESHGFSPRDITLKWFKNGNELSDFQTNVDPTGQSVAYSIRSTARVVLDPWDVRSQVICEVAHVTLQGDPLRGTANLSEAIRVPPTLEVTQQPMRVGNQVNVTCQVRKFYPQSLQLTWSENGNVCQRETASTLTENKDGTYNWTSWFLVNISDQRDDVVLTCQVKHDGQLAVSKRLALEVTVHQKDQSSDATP
Sequence of human SIRPβ1v1 (huSIRPβ1v1) (human) (O00241 30-371): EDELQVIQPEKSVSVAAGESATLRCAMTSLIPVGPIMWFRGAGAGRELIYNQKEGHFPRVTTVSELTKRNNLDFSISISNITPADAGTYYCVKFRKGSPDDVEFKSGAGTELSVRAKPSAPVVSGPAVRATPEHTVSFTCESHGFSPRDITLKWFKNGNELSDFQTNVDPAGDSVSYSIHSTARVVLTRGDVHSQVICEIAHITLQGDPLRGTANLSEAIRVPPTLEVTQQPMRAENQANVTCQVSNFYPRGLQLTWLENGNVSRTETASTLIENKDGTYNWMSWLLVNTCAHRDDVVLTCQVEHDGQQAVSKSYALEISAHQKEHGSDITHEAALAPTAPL
Sequence of human SIRPαBIT expressed on cells (human) (P78324 31-504): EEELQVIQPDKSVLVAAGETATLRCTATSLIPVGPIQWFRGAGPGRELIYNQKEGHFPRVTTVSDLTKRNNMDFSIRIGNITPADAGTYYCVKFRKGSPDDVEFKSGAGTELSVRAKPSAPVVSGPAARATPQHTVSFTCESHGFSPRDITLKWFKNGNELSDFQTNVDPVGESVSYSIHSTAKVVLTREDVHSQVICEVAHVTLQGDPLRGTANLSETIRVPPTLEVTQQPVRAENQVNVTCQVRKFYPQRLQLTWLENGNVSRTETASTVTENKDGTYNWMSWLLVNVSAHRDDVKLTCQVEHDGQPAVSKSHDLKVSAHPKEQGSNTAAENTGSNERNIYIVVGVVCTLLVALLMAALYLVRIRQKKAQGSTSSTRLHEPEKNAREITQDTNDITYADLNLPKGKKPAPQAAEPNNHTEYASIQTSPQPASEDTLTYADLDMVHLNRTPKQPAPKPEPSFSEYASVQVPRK

Molecule | Kd [1] [nM] | Kd (human SIRPγ (huSIRPγ) [2]) [nM] | Kd [3] [nM] | EC50 [4] [µg/mL] | EC50 [5] [µg/mL] | EC50 [6] [µg/mL] | EC50 (human SIRPγ (huSIRPγ) [7]) [µg/mL] | EC50 [8] [µg/mL] | EC50 [9] [µg/mL] | EC50 [10] [µg/mL] | EC50 [11] [µg/mL] | EC50 [12] [µg/mL]
SE5A5 (antibody) | 2.6 | 49 | 2.2 | – | – | – | – | – | – | – | – | –
B1 | – | – | – | 0.25 | 0.013 | 0.009 | 0.034 | 0.009 | 0.017 | 0.011 | – | –
B2 | < 0.01 | – | – | 0.17 | 0.014 | 0.02 | > 100 | – | > 100 | 0.335 | 0.07 | 0.21
B3 | – | – | – | 0.16 | – | – | – | – | – | – | – | –
B4 | – | – | – | 0.23 | – | – | – | – | – | – | – | –
B5 | – | – | – | 0.11 | > 100 | 0.026 | > 100 | 0.023 | 0.047 | 0.03 | – | –
B6 | – | – | – | – | – | 0.021 | 0.043 | 0.039 | 0.058 | 0.305 | – | –
B7 | – | – | – | – | > 100 | 0.02 | > 100 | 0.021 | 0.024 | 0.033 | – | –
